This is an account of results in a protein production outcome set (Wang et al. 2014).

A short description of the data set: label from the status in PepcDB records.
Turning to “MISILRRGLLVLLAALPLLANAASTPSAHDLVQDTTTRLLADLAANKEKYKQSPNDFYNALNSIVGPVVDADGISRSIMTVKYSRKATPEQMVRFQENFKRSLMQFYGNALLEYNNQGITVSPAKDESGTRTSVDMQVKGNNGAIYPVSYTLEKINDEWKVRNVIINGINIGKLFRDQFADAMQRNGNNLDKTIDGWAGEVAKAKEVTEDAAQKAAQLEHHHHHH”, the protein production entry was “not failed”. Next, “MISMPKEKVVIIIPTYNEEDNISNTIDLILKETYSLADYQVDILVFDSHSTDSTAHIVRELTYTSQRIHFAQEPQKTGLGSAYLQAMRIAIDELNADVVFEFDADGSHQPCYIAPMLELLKQHDVVVGSRYISGGRIPSNWAFHRKLLSVGGNWVARMLLTGKYKDLTSGLRAIRTNLLKKLLPSNFLSNNYAYKLELYWLLHKAKARIVEFPIQFIDREKGKSKLPKNSMIDTLRVLFTLRFRELRQYLTMCCVGSIGALIQFSLYNWLRSSNHSALVSSQVAISAAIISNFIFHHSITFKQKTDFRITKTTFSRFTQFIIYSTFMVYFQSLWVHIFVHSFGQGVLKENIIVASGLGIGSIINYLFYSNIIWSSKGTHSLNSNSSKETQI”: “failed”. Next, “MISNEHINTQNFWYQLVEKMAIGVLVINNEGQILYANDYAVQLFGAIRTELIGTNFLYPMAADETQEVEILKSSNEILTAHMTVRKSIWENRQVWIISLFDIT”: “failed”. Regarding “MISSYGDVDMELRDEDLILEEVRDYLTAYLRNIHQEDIILDNERVVVDLNQLYNYGLMEFVEFLINNPQKGIDFIKECYNDAYYTLRNEYPTNVIIAVKNLPKIFKTTRKGKIFTIEDIRSKTLGKLVEFEGIIVMASKIRPMLKKAYYICPKCGREVVREIDILNTDSEKAVCECGAELNLIEHKSIYTDFQEIKVQQPLDLMENPEEPPKYITVFLENSPGIYAGRVKITGIPIKVKKSKKLPIYDIHVKALHCEVLDGEVKIKLTNSDIENIKKIAKRKDVVNILADRLIPEIKGHSAIKKAVLLQQIKGVKKPGKRADIHILLITDPGIGKTVILRKIAEIPGNLYGSVTTATGVGLTAAVVREKTEIGEDTWVIKPGLLVKAHKGTACIDELTVNKELQSYVLEAMESQTIHISKGGINAKLPAECAILAACNPRWGRFNPEVSVAEQINIPAPLLSRFDLIFPIRDVSDKDKDKDIAEYIVDLHRAYLDEKINREMGLDYLEVDGVKIDKEFIIKYIYYARQKKPIISEKAKELFVNYYVEMRKKHQITARQLEAAIRIAEAHAKAKLKDVVDEEDAKEAINIITECLKEIAYDPETGIFDVDKILGVSKKERDKLTTVYEIIKELSEKSELVEHEDIAEEAKKKGIKEDELENIIKKLIKYGDIDEPKPGRYRLL”, the protein production entry is given as “failed”. Next, “MISTMYSEETSERSSFPSKRHLEDRTENREEHSKRLRPTSFRDQKVTIPQGWLDCPRFGQHIGLIIPSKVPLSESYNDCVPSGKRYNFKQWLTKIGLVIDLTNTTRYYHPNTELRQNRIEYVKIRCSGRDSVPDNVSVNTFVHEVTQFENHNLSEKYLLVHCTHGHNRTGFMIVHYLMRSRPMMSVTQALKIFSDARPPGIYKPDYIDALYRFYHEVKPGSVICPPTPEWKRSEEAKFDDDDNALSYREVQGNNQEENVQLSNDDVLGDEIPYDQEVSYQNSINHMLNISMQFPGSHPLSLGREALQLLRQRYYYATWKADGTRYMMLLTRDGCYLVNREYRFRRVQMRFPCEYEPSDYKVHHYTLLDGEMVVDTIKEGETQRHVRRYLVYDLVAINGQFVAERPFSERWNILERELIKPRNDEKKVRDHWYRYDKEPFGVRIKAFCLLSAVEKKVFNELIPLLSHESDGLIFQGWDNPYVFGPNKDLLKWKFVETLDFLFDMDKYGRQMLFLQERGRMKLMEGFAVEFRGDGWDNDLASYCGKIVECSWDKEKKVWVSLRIRVDKSKPNGIGTGRSVIKCIEDDLTKEVLLKEIKEIILLPMYVERIENDTKEAARRKHGNRKG”: “failed”; “MITETQLTAIQTYALQKLAHDHSGHGRDHLQRVNRLARRLAKDEGANLNLTLAAAWLHDVIDDKLMANPAKAHQDLIVQLNAQNVTADDQTAIFAIIDHMSFSKSFNGPQKLSLEGQVVQDADRLDAIGAIGIARALYYSGHVGEKIYDPAIAPREHMTREQYRHQPGTAINHFYEKLFKLAALMNTDTAKALAAHRTAVMHEFVDQFKAEWTADDKALEHHHHHH”: “not failed”.

For “MITFEKVTVENENVVKEMFRSHSLSEKQVQYCVKVDDTYIGVIDYRVQGETAILSQLIIHFDYQSYGYGTNTYFTFEMMMKERNVKEIKVLQTELTEPVKSFIESFGFNVEDG”, the protein production result is listed as “failed”.
